Results published in PMC2500128 (The Journal of Cell Biology, 2008).
Where two headings read alike, the source gives them in different places.

How the values were obtained:
[1] = molecular target: microtubules (Cy5-labeled tubulin from porcine brain) (porcine (purified from porcine brain)) (UniProt P02550); experiment: single-molecule fluorescence motility assay
[2] = molecular target: microtubules (Cy5-labeled tubulin from porcine brain) (porcine (purified from porcine brain)) (UniProt P02550); experiment: single-molecule fluorescence motility assay; remark: listed apart in the source
[3] = molecular target: the molecule itself; experiment: single-molecule fluorescence and photobleaching

For “Eg5-513-GFP (from UniProt P28025 1-513) (domain or fragment)”, the time bound to the microtubule [1] was < 2 s.

Work on “full-length Xenopus laevis Eg5-GFP (from UniProt P28025 1-1067) (natural protein)” yielded an average duration of motile events (binding events) [1] of 34 s and an average duration of motile events (binding events) [2] of 16 s.

B1: Eg5-513-GFP (domain or fragment, X. laevis)
chain: MSSQNSFMASKKEDKGKNIQVVVRCRPFNQLERKASSHSVLECDSQRKEVYVRTGEVNDKLGKKTYTFDMVFGPAAKQIEVYRSVVCPILDEVIMGYNCTIFAYGQTGTGKTFTMEGERSSDEEFTWEQDPLAGIIPRTLHQIFEKLSENGTEFSVKVSLLEIYNEELFDLLSPSPDVGERLQMFDDPRNKRGVIIKGLEEISVHNKDEVYHILERGAARRKTASTLMNAYSSRSHSVFSVTIHMKETTVDGEELVKIGKLNLVDLAGSENIGRSGAVDKRAREAGNINQSLLTLGRVITALVERTPHIPYRESKLTRILQDSLGGRTKTSIIATVSPASINLEETVSTLDYANRAKSIMNKPEVNQKLTKKALIKEYTEEIERLKRELAAAREKNGVYLSSENYEQLQGKVLSQEEMITEYTEKITAMEEELKSISELFADNKKELEECTTILQCKEKELEETQNHLQESKEQLAQESFVVSAFETTEKKLHGTANKLLSTVRETTRDVSGLGSSGGGGSGGGGSGGGGS
For B1, the “stoichiometry N” value [3] was 2.
